Experimental data as given in the Human Domainome abundance scans (Beltran et al. 2025).

B1: Protein S100-G, residues 1 to 79; numbered along this chain, P02633 (parent)
chain: MSAKKSPEELKGIFEKYAAKEGDPNQLSKEELKLLLQTEFPSLLKGPSTLDELFEELDKNGDGEVSFEEFQVLVKKISQ

Variants of: B1
Assay: abundance fitness (aPCA) (normalised: wild type 0, dead -1); higher = more abundant; growth selection in yeast, the domain comes from the species named
Details: Bos taurus

Abundance fitness of substitutions, site by site:
E68: C -0.073 | F -0.062 | K 0.018 | R -0.046 | P 0.009 | T -0.012 | G -0.06 | A -0.016 | D -0.005 | M -0.044 | H -0.001 | Y -0.216 | Q -0.099 | N -0.047 | L -0.098
L57: N -0.042 | F -0.014 | H -0.031 | D 0.081 | R -0.015 | S 0.013 | A 0.079 | K -0.071 | P -0.012 | M 0.054 | C 0.024 | Y 0.03 | G -0.117 | Q 0.021 | I 0.156 | E -0.044 | W 0.032
D58: P -0.078 | R -0.072 | M -0.026 | W -0.027 | K -0.008 | A -0.107 | T 0.021 | G 0.007 | F 0.054 | Q 0.068 | Y -0.008 | S 0.025 | N -0.053 | I 0.027 | H -0.096 | V -0.058 | E -0.109 | L 0.054 | C -0.022
L73: S -0.187 | A -0.112 | P -0.797 | H -0.151 | C 0.065 | G -0.041 | E -0.247 | W 0.015 | Y -0.05 | K -0.413 | D -0.668 | T -0.071 | R -0.473 | F -0.124 | Q -0.28 | V -0.017 | M -0.05 | I -0.016 | N -0.273
G61: M -0.026 | W -0.024 | K -0.05 | S 0.019 | L -0.063 | C 0.026 | T 0.006 | E 0.067 | P 0.007 | N -0.072 | Y -0.065 | I -0.019 | F -0.006 | Q -0.021 | V -0.021 | R -0.042 | H -0.163
N60: L -0.034 | P 0.004 | T -0.042 | I 0 | D 0.058 | H -0.05 | M -0.164 | W -0.091 | S 0.04 | F -0.156 | R 0.014 | E 0.108 | K -0.105 | Q -0.043 | C -0.102 | G 0.027 | A 0.101
V65: C -0.05 | L 0.044 | M 0.025 | R -0.165 | P -0.34 | I 0.007 | K -0.171 | S -0.109 | Q -0.165 | T 0.037 | A -0.091 | N -0.2 | G -0.37 | F -0.002 | D -0.86 | W -0.018
E64: M 0.035 | F -0.055 | W 0.155 | G 0.059 | T 0.073 | A 0.01 | L -0.055 | H 0.048 | D 0.049 | P 0.008 | S 0.002 | K -0.028 | Q 0.081 | V -0.065 | C 0.032 | I -0.101 | N -0.026 | Y -0.049
F67: K -0.172 | Y -0.022 | S -0.097 | L -0.059 | C -0.05 | I -0.161 | N -0.131 | M -0.176 | G -0.175 | T -0.201 | R -0.141 | V -0.059 | A -0.123 | D -0.294 | W -0.038 | E -0.063 | P -0.257 | Q 0.04 | H -0.12
D62: I -0.097 | A -0.009 | G -0.032 | W -0.168 | P -0.027 | L -0.042 | H -0.045 | V -0.027 | E 0.058 | Y -0.193 | S 0.043 | F -0.138 | R -0.003 | K 0.004 | T -0.044
F70: D -1.14 | P -0.94 | K -0.965 | C -0.169 | N -1.25 | M -0.105 | R -0.797 | G -0.73 | L -0.157 | Q -1.01 | Y -0.039 | V -0.165 | H -1 | E -1.25 | S -0.531 | T -0.162 | A -0.157 | I -0.534 | W -0.115
E56: Q -0.053 | S 0.002 | L -0.082 | M -0.045 | K -0.071 | P 0.094 | I -0.208 | R -0.02 | T 0.001 | Y -0.06 | W -0.076 | H -0.005
V74: L -0.018 | D -0.044 | C -0.069 | N -0.001 | E -0.004 | S 0 | R -0.245 | Q 0.102 | K 0.041 | I 0.066 | G -0.023 | W 0.063 | T 0.024 | M 0.016
G63: S -0.06 | V -0.079 | K -0.017 | A -0.009 | D -0.005 | R -0.029 | E 0.118 | N -0.082 | P -0.036 | L -0.13 | C -0.04 | Y 0.002 | F -0.124 | M -0.019 | H 0.093
K75: H 0.01 | D -0.063 | P -0.186 | C -0.148 | Q -0.11 | I -0.167 | V -0.074 | T -0.073 | S -0.023 | R -0.074 | L -0.045 | M -0.098 | G -0.022 | F -0.151
Q71: K -0.074 | E 0.068 | D -0.038 | W -0.244 | S 0.017 | R -0.091 | V -0.058 | N -0.06 | L 0.031 | Y -0.168 | F -0.107 | T -0.031 | P -0.25 | M -0.032 | G 0.009 | C -0.101 | H -0.029 | I -0.054 | A -0.031
S66: P -0.107 | G 0.033 | T 0.029 | Q -0.101 | N 0.014 | I -0.101 | E 0.048 | C 0.053 | H -0.146 | V 0 | F -0.124 | M 0.008 | Y -0.086 | R -0.036 | L -0.137 | A -0.009 | K -0.066 | W -0.382
E69: G 0.06 | Q 0.016 | N -0.215 | R -0.056 | H -0.007 | W -0.253 | T -0.013 | K -0.016 | V -0.021 | A -0.04 | M 0.022 | C -0.074 | I -0.055 | L -0.006 | S -0.07 | F -0.215 | D 0.009
V72: N -0.012 | I -0.022 | F -0.032 | K 0.022 | P -0.018 | Y -0.059 | H -0.029 | M -0.035 | A -0.034 | S -0.043 | D -0.068 | E -0.092 | Q -0.059 | T 0.053 | G 0.038 | L -0.004
K59: M 0.085 | G 0.093 | N 0.009 | S 0.009 | A 0.055 | C 0.021 | E -0.005 | T 0.007 | Q -0.009 | W 0.065 | L 0.052 | Y -0.079 | F 0.098 | D -0.022 | H 0.013 | I -0.105 | V 0.087 | R -0.003
